# Values quoted from earlier work in publication PMC8634938.
# How the values were obtained:
# IL-22R (Homo sapiens) = IL-22R (Homo sapiens) (UniProt Q8N6P7)
# IL-22BP (Homo sapiens) = IL-22BP (Homo sapiens) (UniProt Q969J5)
# Sequence of UniProt Q969J5 (Q969J5 22-263): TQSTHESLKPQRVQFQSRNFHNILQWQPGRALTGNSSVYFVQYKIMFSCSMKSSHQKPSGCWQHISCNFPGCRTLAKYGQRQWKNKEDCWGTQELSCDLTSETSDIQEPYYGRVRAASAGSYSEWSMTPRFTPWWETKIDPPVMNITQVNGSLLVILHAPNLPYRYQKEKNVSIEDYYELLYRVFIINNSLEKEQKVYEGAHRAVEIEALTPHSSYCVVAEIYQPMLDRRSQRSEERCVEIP
# Sequence of UniProt Q8N6P7 (Q8N6P7 16-228): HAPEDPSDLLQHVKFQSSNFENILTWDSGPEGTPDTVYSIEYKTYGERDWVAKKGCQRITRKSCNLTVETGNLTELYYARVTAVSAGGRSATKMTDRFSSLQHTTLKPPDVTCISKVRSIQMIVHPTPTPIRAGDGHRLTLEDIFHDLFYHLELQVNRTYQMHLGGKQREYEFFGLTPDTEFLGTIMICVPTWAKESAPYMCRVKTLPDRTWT
substance,measurement,setting,value
IL-22 (from UniProt Q9GZX6),Kd,IL-22R (Homo sapiens),20 nM
same,Kd,IL-22BP (Homo sapiens),0.001 nM
